Test results taken from patent US20240360229A1 (Genentech, published 2024).

How the values were obtained:
[1] = target: T1, Human CD3-epsilon/delta dimer (linked by murine Fc) (human; mouse, UniProt P07766 23-126; P04234 22-105); assay: SPR (Biacore T200, 37 C), TDB captured by anti-human Fc on CM5, huCD3ed-mIgG2a.Fc injected; 1:1 Langmuir, n=3
T1 construct: also called huCD3ed-mIgG2a.Fc; recombinant human CD3epsilon/delta; not shown: mouse IgG2a Fc

cyno CCR8 [2] = target: T2, cyno CCR8 (cynomolgus monkey, UniProt O97665 1-356 (rhesus entry)); assay: LigandTracer real-time fluorescence, Alexa Fluor 488-labelled TDB on CHO cells expressing cyno CCR8; 1-to-2 fit, bivalent event
T2 construct: also called cynomolgus CCR8; cyCCR8
Description: (§1) The following day, media was aspirated and fresh media was added. The cells were incubated at room temperature for 20 minutes prior to starting the assay. The plate was loaded onto a LIGAND TRACER® Green instrument (Ridgeview Instruments AB) for real-time fluorescence measurement. […] Antibody (Ab) dissociation was recorded by aspirating the media and adding fresh media with 10 nM of unlabeled Ab to prevent rebinding of labeled Ab. The Ab dissociation was measured overnight to obtain accurate off-rates. Untransfected CHO cells were used to subtract the non-specific binding. Specific binding traces were analyzed using TraceDrawer 1.7 (Ridgeview Instruments) software and fit with a 1-to-2 with bulk binding model to determine association (kₐ) and dissociation (kd) rate constants. The equilibrium dissociation constants (KD) for each binding event were calculated as the ratio of the dissociation and association rates, kd/kₐ.
(§2) 1 million CHO cells stably expressing either human or cynomolgus CCR8 (about 60,000 and about 30,000 receptors/cell, respectively) were seeded at a concentration of 1 million cells/mL onto a Multidish 2×2 Petri Dish (Ridgeview Instruments AB, Sweden) to form a circular drop of about 3 cm diameter in chambers A and C of the dish. […] The plate was loaded onto a […]® Green (Ridgeview Instruments AB) for real-time fluorescence measurement.

cyno CCR8 [3] = target: T2, cyno CCR8; assay: LigandTracer real-time fluorescence, Alexa Fluor 488-labelled TDB on CHO cells expressing cyno CCR8; 1-to-2 fit, monovalent event
Description: as §1, §2

human CCR8 [4] = target: T3, human CCR8 (human, UniProt P51685 1-355); assay: LigandTracer real-time fluorescence, Alexa Fluor 488-labelled TDB on CHO cells expressing human CCR8; 1-to-2 fit, bivalent event
T3 construct: also CHO-hCCR8-Ga15 / CHO/hCCR8.Gna15); also called hCCR8; huCCR8
Description: as §1, §2

human CCR8 [5] = target: T3, human CCR8; assay: LigandTracer real-time fluorescence, Alexa Fluor 488-labelled TDB on CHO cells expressing human CCR8; 1-to-2 fit, monovalent event
Description: as §1, §2

human CCR8 [6] = target: T3, human CCR8; assay: cellular binding with LigandTracer on CHO cells expressing human CCR8, three experiments (same values as the bivalent row of Table 8)
Description: (§3) Untransfected CHO cells were used to subtract the non-specific binding. Specific binding traces were analyzed using TraceDrawer 1.7 (Ridgeview Instruments) software and fit with a 1-to-2 with bulk binding model to determine association (kₐ) and dissociation (kd) rate constants. The equilibrium dissociation constants (KD) for each binding event were calculated as the ratio of the dissociation and association rates, kd/kₐ.
(§4) 1 million CHO cells stably expressing either human or cynomolgus CCR8 (about 60,000 and about 30,000 receptors/cell, respectively) were seeded at a concentration of 1 million cells/mL onto a Multidish 2×2 Petri Dish (Ridgeview Instruments AB, Sweden) to form a circular drop of about 3 cm diameter in chambers A and C of the dish. Untransfected CHO cells were seeded in opposing chambers (B and D) in the same manner. Cells were left undisturbed to adhere for 4 hours. […] The plate was loaded onto a […]® Green (Ridgeview Instruments AB) for real-time fluorescence measurement. […] The Ab dissociation was measured overnight to obtain accurate off-rates. […] Specific binding traces were analyzed using TraceDrawer 1.7 (Ridgeview Instruments) software to determine the association-(kₐ) and dissociation-(kd) rate constants. The equilibrium dissociation constants (KD) for each binding event were calculated as the ratio of the dissociation and association rates, kd/kₐ. […]

cyno CCR8 [7] = target: T2, cyno CCR8; assay: cellular binding with LigandTracer on CHO cells expressing cyno CCR8, three experiments (same values as the bivalent row of Table 8)
Description: as §3, §4

human CCR8 [8] = target: T3, human CCR8; assay: flow cytometry titration on CHO cells stably expressing human CCR8 (14 h, room temperature)
Description: (§5) In particular, human CCR8 CHO and cyno (cynomolgus monkey) CCR8 CHO stable cell lines were stained with a dilution series of anti-CCR8 antibodies at room temperature for 14 hours, then washed twice with FACS buffer (PBS with 0.5% BSA and 0.2 mM EDTA). Samples were washed twice with FACS buffer followed by staining with goat Fab anti-hu IgG H+L (1:300, Jackson Immuno) at 4° C. for 15 minutes.

cyno CCR8 [9] = target: T2, cyno CCR8; assay: flow cytometry titration on CHO cells stably expressing cyno CCR8 (14 h, room temperature)
Description: as §5

T2 sequence (O97665 other isoform, or with tags, fused parts or gaps): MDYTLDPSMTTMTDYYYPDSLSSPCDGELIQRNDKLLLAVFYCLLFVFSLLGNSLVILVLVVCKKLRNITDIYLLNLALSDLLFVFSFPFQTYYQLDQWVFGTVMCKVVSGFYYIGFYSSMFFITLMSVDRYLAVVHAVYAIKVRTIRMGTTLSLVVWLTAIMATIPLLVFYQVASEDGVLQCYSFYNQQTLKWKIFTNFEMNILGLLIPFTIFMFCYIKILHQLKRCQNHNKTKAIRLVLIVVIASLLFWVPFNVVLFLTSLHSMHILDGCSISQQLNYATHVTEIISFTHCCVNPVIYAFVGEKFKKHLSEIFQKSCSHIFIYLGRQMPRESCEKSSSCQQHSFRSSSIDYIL
T3 sequence (P51685 whole entry): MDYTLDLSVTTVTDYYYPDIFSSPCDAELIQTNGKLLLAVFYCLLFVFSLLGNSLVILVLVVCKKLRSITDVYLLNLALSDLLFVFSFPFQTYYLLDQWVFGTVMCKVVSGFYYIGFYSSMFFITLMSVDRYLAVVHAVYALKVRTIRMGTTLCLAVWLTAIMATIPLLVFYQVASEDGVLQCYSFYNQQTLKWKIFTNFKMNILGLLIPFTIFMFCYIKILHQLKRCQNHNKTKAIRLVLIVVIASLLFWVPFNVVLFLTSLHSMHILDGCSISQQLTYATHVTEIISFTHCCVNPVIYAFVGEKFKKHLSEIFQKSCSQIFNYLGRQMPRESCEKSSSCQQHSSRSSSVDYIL
T1 sequence (P07766 23-126, stated change not applied, chain 1 of 2): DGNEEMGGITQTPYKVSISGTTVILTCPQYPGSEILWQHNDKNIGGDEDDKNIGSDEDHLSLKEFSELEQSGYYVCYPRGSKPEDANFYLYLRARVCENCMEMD
T1 sequence (P04234 22-105, stated change not applied, chain 2 of 2): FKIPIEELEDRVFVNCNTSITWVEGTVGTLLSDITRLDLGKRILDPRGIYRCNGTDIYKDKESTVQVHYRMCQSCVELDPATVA

Row | EC50 (human CCR8 [8]) | EC50 (cyno CCR8 [9]) | Binder | other results
1 |  |  | 1889/1889:40G5c anti-CCR8 TDB 2+1 A/AB (A: 1889 P, B: 40G5c) (bispecific antibody, human IgG1, kappa, L234A L235A, 2+1 T cell-dependent bispecific: human IgG1 Fc with LALA-PG, knob-into-hole and charge mutations) heavy 1: EVQLLESGGGLVQPGGSLRLSCAASGIDLSTYAMGWVREAPGKGLEWVGLIHRSGRTYYATWAKGRFTISKDSSKNTLYLQMNSLRAEDTAVYYCTRSYPDYSATASIWGQGTTVTVSSASTKGPSVFPLAPSSKSTSGGTAALGCLVKDYFPEPVTVSWNSGALTSGVHTFPAVLQSSGLYSLKSVVTVPSSSLGTQTYICNVNHKPSNTKVDKKVEPKSCDKTHTCPPCPAPEAAGGPSVFLFPPKPKDTLMISRTPEVTCVVVDVSHEDPEVKFNWYVDGVEVHNAKTKPREEQYNSTYRVVSVLTVLHQDWLNGKEYKCKVSNKALGAPIEKTISKAKGQPREPQVYTLPPSREEMTKNQVSLWCLVKGFYPSDIAVEWESNGQPENNYKTTPPVLDSDGSFFLYSKLTVDKSRWQQGNVFSCSVMHEALHNHYTQKSLSLSPGK light 1: DIQVTQSPSSLPASVGDRVTITCQASENIANALAWYQKKPGKPPKFLIYGASNLASGVPSRFSGSGSGTDFTFTISSLQPEDIATYYCQQAYYGNSFVEGTFGGGTKVEIKRTVAAPSVFIFPPSDEQLKSGTASVECLLNNFYPREAKVQWKVDNALQSGNSQESVTEQDSKDSTYSLSSTLTLSKADYEKHKVYACEVTHQGLSSPVTKSFNRGEC heavy 2: EVQLLESGGGLVQPGGSLRLSCAASGIDLSTYAMGWVREAPGKGLEWVGLIHRSGRTYYATWAKGRFTISKDSSKNTLYLQMNSLRAEDTAVYYCTRSYPDYSATASIWGQGTTVTVSSASTKGPSVFPLAPSSKSTSGGTAALGCLVKDYFPEPVTVSWNSGALTSGVHTFPAVLQSSGLYSLKSVVTVPSSSLGTQTYICNVNHKPSNTKVDKKVEPKSCDKTHTEVQLVQSGAEVKKPGASVKVSCKASGYTFTNYYIHWVRKAPGQGLEWIGWIYPGDGNTKYNEKFKGRATLTADTSTSTAYLELSSLRSEDTAVYYCARDSYSNYYFDYWGQGTLVTVSSASTKGPSVFPLAPSSKSTSGGTAALGCLVKDYFPEPVTVSWNSGALTSGVHTFPAVLQSSGLYSLESVVTVPSSSLGTQTYICNVNHKPSNTKVDKKVEPKSCDKTHTCPPCPAPEAAGGPSVFLFPPKPKDTLMISRTPEVTCVVVDVSHEDPEVKFNWYVDGVEVHNAKTKPREEQYNSTYRVVSVLTVLHQDWLNGKEYKCKVSNKALGAPIEKTISKAKGQPREPQVYTLPPSREEMTKNQVSLSCAVKGFYPSDIAVEWESNGQPENNYKTTPPVLDSDGSFFLVSKLTVDKSRWQQGNVFSCSVMHEALHNHYTQKSLSLSPGK light 2: not shown | Kd [1]: 1160 nM; Kd (cyno CCR8 [2]): 0.0228 nM; Kd (cyno CCR8 [3]): 1.01 nM; Kd (human CCR8 [4]): 0.00778 nM; Kd (human CCR8 [5]): 0.484 nM; Kd (human CCR8 [6]): 0.008 nM; Kd (cyno CCR8 [7]): 0.023 nM
2 | 17.1 nM | 11.5 nM | anti-CCR8 1889 WT antibody (parent) (antibody, V domains shown, The antibody has human IgG constant regions (detected with anti-human IgG)) VH: EVQLLESGGGLVQPGGSLRLSCAASGIDLSTYAMGWVREAPGKGLEWVGLIHRSGRTYYATWAKGRFTISKDSSKNTLYLQMNSLRAEDTAVYYCTRSYPDYSATASIWGQGTTVTVSS VL: DIQVTQSPSSLSASVGDRVTITCQASENIANALAWYQKKPGKPPKFLIYGASNLASGVPSRFSGSGSGTDFTFTISSLQPEDIATYYCQQAYYGNSFVEGTFGGGTKVEIK | 
3 | 1.19 nM | 3.39 nM | anti-CCR8 1889 S12P.I29V.E95dS.Y58A (PVSA) (antibody, V domains shown, It is put together from the printed names of the heavy and light chain variants) VH: EVQLLESGGGLVQPGGSLRLSCAASGIDLSTYAMGWVREAPGKGLEWVGLIHRSGRTAYATWAKGRFTISKDSSKNTLYLQMNSLRAEDTAVYYCTRSYPDYSATASIWGQGTTVTVSS VL: DIQVTQSPSSLPASVGDRVTITCQASENVANALAWYQKKPGKPPKFLIYGASNLASGVPSRFSGSGSGTDFTFTISSLQPEDIATYYCQQAYYGNSFVSGTFGGGTKVEIK | 
4 | 1.03 nM | 6.14 nM | anti-CCR8 1889 S12P.I29V.Y58A (PVA) (antibody, V domains shown, It is put together from the printed names of the heavy chain variant (Y58A) and the light chain variant (S12P.I29V)) VH: EVQLLESGGGLVQPGGSLRLSCAASGIDLSTYAMGWVREAPGKGLEWVGLIHRSGRTAYATWAKGRFTISKDSSKNTLYLQMNSLRAEDTAVYYCTRSYPDYSATASIWGQGTTVTVSS VL: DIQVTQSPSSLPASVGDRVTITCQASENVANALAWYQKKPGKPPKFLIYGASNLASGVPSRFSGSGSGTDFTFTISSLQPEDIATYYCQQAYYGNSFVEGTFGGGTKVEIK | 
5 | 0.66 nM | 3.13 nM | anti-CCR8 1889 S12P.I29V.E95dS (PVS) (antibody, V domains shown) VH: EVQLLESGGGLVQPGGSLRLSCAASGIDLSTYAMGWVREAPGKGLEWVGLIHRSGRTYYATWAKGRFTISKDSSKNTLYLQMNSLRAEDTAVYYCTRSYPDYSATASIWGQGTTVTVSS VL: DIQVTQSPSSLPASVGDRVTITCQASENVANALAWYQKKPGKPPKFLIYGASNLASGVPSRFSGSGSGTDFTFTISSLQPEDIATYYCQQAYYGNSFVSGTFGGGTKVEIK | 
6 | 0.94 nM | 2.24 nM | anti-CCR8 1889 S12P.I29V.E95dS.T57D.Y58A (PVSDA) (antibody, V domains shown, It is put together from the printed names of the heavy and light chain variants; also called I29V.E95dS.Y57D.Y58A) VH: EVQLLESGGGLVQPGGSLRLSCAASGIDLSTYAMGWVREAPGKGLEWVGLIHRSGRDAYATWAKGRFTISKDSSKNTLYLQMNSLRAEDTAVYYCTRSYPDYSATASIWGQGTTVTVSS VL: DIQVTQSPSSLPASVGDRVTITCQASENVANALAWYQKKPGKPPKFLIYGASNLASGVPSRFSGSGSGTDFTFTISSLQPEDIATYYCQQAYYGNSFVSGTFGGGTKVEIK | 
7 | 1.65 nM | 7.67 nM | anti-CCR8 1889 S12P.I29V (PV) (antibody, V domains shown) VH: EVQLLESGGGLVQPGGSLRLSCAASGIDLSTYAMGWVREAPGKGLEWVGLIHRSGRTYYATWAKGRFTISKDSSKNTLYLQMNSLRAEDTAVYYCTRSYPDYSATASIWGQGTTVTVSS VL: DIQVTQSPSSLPASVGDRVTITCQASENVANALAWYQKKPGKPPKFLIYGASNLASGVPSRFSGSGSGTDFTFTISSLQPEDIATYYCQQAYYGNSFVEGTFGGGTKVEIK | 
